Data reported in the RNAGym collection of RNA variant scans (doi:10.7554/elife.80360).

B1: Hammerhead Ribozyme (parent)
chain: ACCGGAUGUGCUUUCCGGUCUGAUGAGUCCGUGAGGACGAAACAG

Variants of: B1
Assay: self-cleavage, relative activity (ratio to wild type); higher = more cleavage; co-transcriptional

Question: Which self-cleavage does the source give for U13A A44U here?
Answer: 0.749

Question: Which self-cleavage does the source give for U13G C43G here?
Answer: 0.335

Question: For U13G C43U, which self-cleavage is on record?
Answer: 0.596

Question: Which self-cleavage does the source give for U13G C43A here?
Answer: 0.369

Question: Which self-cleavage does the source give for U13A C15U here?
Answer: 0.907

Question: For U13A C15A, which self-cleavage is on record?
Answer: 0.926

Question: With U13A C15G as the variant, how does the self-cleavage read?
Answer: 0.895

Question: With U13A U19G as the variant, how does the self-cleavage read?
Answer: 0.425

Question: Which self-cleavage does the source give for U13A U19C here?
Answer: 0.898

Question: For U13A U19A, which self-cleavage is on record?
Answer: 0.36

Question: For U13A C16U, which self-cleavage is on record?
Answer: 1.02

Question: With U13A C16G as the variant, how does the self-cleavage read?
Answer: 1.27

Question: Which self-cleavage does the source give for U13A C16A here?
Answer: 1.49

Question: For U13C C38U, which self-cleavage is on record?
Answer: 1.11

Question: Which self-cleavage does the source give for U13C C38G here?
Answer: 0.458

Question: For U13C C38A, which self-cleavage is on record?
Answer: 0.601

Question: For U13G C16U, which self-cleavage is on record?
Answer: 0.836

Question: With U13G C16A as the variant, how does the self-cleavage read?
Answer: 0.765

Question: Which self-cleavage does the source give for U13G C16G here?
Answer: 0.899

Question: Which self-cleavage does the source give for U13C G35A here?
Answer: 0.552

Question: With U13C G35C as the variant, how does the self-cleavage read?
Answer: 0.774

Question: With U13C G35U as the variant, how does the self-cleavage read?
Answer: 0.744

Question: Which self-cleavage does the source give for U12G G22U here?
Answer: 0.37

Question: With U12G G22C as the variant, how does the self-cleavage read?
Answer: 0.326

Question: With U12G G22A as the variant, how does the self-cleavage read?
Answer: 0.338

Question: With U13A U32C as the variant, how does the self-cleavage read?
Answer: 1.24

Question: With U13A U32G as the variant, how does the self-cleavage read?
Answer: 1.3

Question: For U13A U32A, which self-cleavage is on record?
Answer: 1.31

Question: For U13G A42G, which self-cleavage is on record?
Answer: 0.316

Question: With U13G A42U as the variant, how does the self-cleavage read?
Answer: 0.333

Question: For U13G A42C, which self-cleavage is on record?
Answer: 0.276

Question: With U13A U24C as the variant, how does the self-cleavage read?
Answer: 1.07

Question: For U13A U24G, which self-cleavage is on record?
Answer: 1.99

Question: Which self-cleavage does the source give for U13A U24A here?
Answer: 1.09

Question: Which self-cleavage does the source give for U12G G36C here?
Answer: 0.679

Question: With U12G G36A as the variant, how does the self-cleavage read?
Answer: 0.518

Question: For U12G G36U, which self-cleavage is on record?
Answer: 0.471

Question: With U13A G25A as the variant, how does the self-cleavage read?
Answer: 0.326

Question: With U13A G25U as the variant, how does the self-cleavage read?
Answer: 0.277

Question: For U13A G25C, which self-cleavage is on record?
Answer: 0.327

Question: With U13C G39C as the variant, how does the self-cleavage read?
Answer: 0.471

Question: With U13C G39A as the variant, how does the self-cleavage read?
Answer: 0.293

Question: Which self-cleavage does the source give for U13C G39U here?
Answer: 0.419

Question: With U13C U24A as the variant, how does the self-cleavage read?
Answer: 1.64

Question: For U13C U24C, which self-cleavage is on record?
Answer: 1.31

Question: For U13C U24G, which self-cleavage is on record?
Answer: 0.837

Question: Which self-cleavage does the source give for U13C A40C here?
Answer: 0.725

Question: Which self-cleavage does the source give for U13C A40U here?
Answer: 0.277

Question: Which self-cleavage does the source give for U13C A40G here?
Answer: 0.465

Question: For U12G U14A, which self-cleavage is on record?
Answer: 0.832

Question: Which self-cleavage does the source give for U12G U14G here?
Answer: 0.961

Question: For U12G U14C, which self-cleavage is on record?
Answer: 0.677

Question: For U13A G18U, which self-cleavage is on record?
Answer: 1.23

Question: With U13A G18C as the variant, how does the self-cleavage read?
Answer: 0.777

Question: Which self-cleavage does the source give for U13A G18A here?
Answer: 1.17

Question: With U13C U14A as the variant, how does the self-cleavage read?
Answer: 0.621

Question: With U13C U14G as the variant, how does the self-cleavage read?
Answer: 0.364

Question: Which self-cleavage does the source give for U13C U14C here?
Answer: 0.862

Question: Which self-cleavage does the source give for U13A A23U here?
Answer: 0.361

Question: Which self-cleavage does the source give for U13A A23C here?
Answer: 0.503

Question: Which self-cleavage does the source give for U13A A23G here?
Answer: 0.441

Question: For U13A C30G, which self-cleavage is on record?
Answer: 0.947

Question: For U13A C30U, which self-cleavage is on record?
Answer: 1.46

Question: For U13A C30A, which self-cleavage is on record?
Answer: 1.31

Question: For U13A C43A, which self-cleavage is on record?
Answer: 0.254

Question: For U13A C43G, which self-cleavage is on record?
Answer: 0.335

Question: Which self-cleavage does the source give for U13A C43U here?
Answer: 0.614

Question: For U12G G17U, which self-cleavage is on record?
Answer: 0.943

Question: Which self-cleavage does the source give for U12G G17A here?
Answer: 0.738

Question: For U12G G17C, which self-cleavage is on record?
Answer: 0.436

Question: For U12G G33A, which self-cleavage is on record?
Answer: 1.02

Question: Which self-cleavage does the source give for U12G G33U here?
Answer: 1.2

Question: With U12G G33C as the variant, how does the self-cleavage read?
Answer: 0.972

Question: With U12G C43U as the variant, how does the self-cleavage read?
Answer: 0.43

Question: Which self-cleavage does the source give for U12G C43A here?
Answer: 0.362

Question: For U12G C43G, which self-cleavage is on record?
Answer: 0.181

Question: Which self-cleavage does the source give for U13A G22A here?
Answer: 0.298

Question: Which self-cleavage does the source give for U13A G22U here?
Answer: 0.381

Question: Which self-cleavage does the source give for U13A G22C here?
Answer: 0.312

Question: With U13A U14G as the variant, how does the self-cleavage read?
Answer: 1.16

Question: With U13A U14C as the variant, how does the self-cleavage read?
Answer: 0.548

Question: With U13A U14A as the variant, how does the self-cleavage read?
Answer: 1.15

Question: With U12G A42U as the variant, how does the self-cleavage read?
Answer: 0.321

Question: With U12G A42G as the variant, how does the self-cleavage read?
Answer: 0.356
